# Substitutions are numbered along the chain they refer to.
# B1: H11E5+L25B8 (affinity-matured variant of hS2C3) (antibody, V domains shown)
# VH: QVQLVQSGAEVKKPGASVKVSCKASGYTFTDYYMHWVRQAPGQRLEWMGWIYPSSGNTKYAQKFKDRVTMTRDTSTSTVYMELSSLRSEDTAVYYCARREEDYFDYWGQGTLVTVSS
# VL: DIVMTQSPDSLAVSLGERATINCKSSQSLLYSSNKKNYLTWYQQKPGQPPKLLIYWASTRESGVPDRFSGSGSGTDFTLTISSLQAEDVAVYYCQQFYAYPISFGQGTKLEIK
# notes: Humanized monoclonal antibody
# B2: S4D12 (mouse scFv clone displayed on phage) (scFv)
# scFv: QVQLQQPGAELVKPGASVKMSCKASGYTFTNYWMHWVKQRPGQGLEWIGVIAPSDNYTNYNQKFQGKATLTVDTSSSTAYMQLSSLTSEDSAVYYCTKGGKYSMDYWGQGTSVTVSSGGGGSGGGGSGGGGSDVLMTQTPLSLPVSLGDQASISCRSSQSIVHSNGNTYLEWYLQKPGQSPKLLIYKVSNRFSGVPDRFSGSGSGTDFTLKISRVEAEDLGVYYCFQGSHVPFTFGSGTKLEIK
# notes: also called 鼠单链抗体S4D12; 鼠单抗S4D12
# B3: S2C3 (mouse scFv clone displayed on phage) (scFv)
# scFv: QIQLQQSGPELVKPGASVKISCKASGYTFTDYYMHWVKQRPGQGLEWIGWINPSSGNTKYAQKFQDKATLTVATSSSTAYMQLSSLTSEDTAVYFCARREEDYFDYWGQGTLVTVSSGGGGSGGGGSGGGGSDIVMSQSPSSLAVSVGEKVTMSCKSSQSLLYPSNKKNYLTWYQQKPGQSPKLLIYWASTRESGVPDRFTGSGSGTDFTLTISSVKAEDLAVYYCQEYYAYPLSFGAGTKLEIK
# notes: also called 鼠单链抗体S2C3; 鼠单抗S2C3
# B4: S2H2 (mouse scFv clone displayed on phage) (scFv)
# scFv: QVQLQQPGAEVVKPGASVKMSCKASGYTLSSYWMHWVKQRPGQGLEWIGTIDRSDSYISYNQKFKGKATLTVDTSSGTVYMQLNSLTSEDSAVYYCTRGGPYGSKMMDNWGQGTSVTVSSGGGGSGGGGSGGGGSDIQMNQSPSSLSASLGDTITITCHASQNINVWLSWYQQKPGNIPKLLIYKASNLHTGVPSRFSGSGSGTGFTLTISSLQPEDIATYYCQQGQSYPLTFGTGTKLELK
# notes: also called 鼠单链抗体S2H2; 鼠单抗S2H2
# B5: hS2C3-IgG4 (humanized S2C3) (antibody, V domains shown)
# VH: B1 VH with Y52N, K65Q
# VL: B1 VL with S32P, Q96E, F97Y, I102L
# B6: hS4D12-IgG4 (humanized S4D12) (antibody, V domains shown)
# VH: QVQLVQSGAEVKKPGASVKVSCKASGYTFTNYWMHWVRQRPGQGLEWIGVIAPSDNYTNYNQKFQGRVTMTVDTSTSTVYMELSSLRSEDTAVYYCTKGGKYSMDYWGQGTTVTVSS
# VL: DIVMTQTPLSLPVTPGEPASISCRSSQSIVHSNGNTYLEWYLQKPGQSPQLLIYKVSNRFSGVPDRFSGSGSGTDFTLKISRVEAEDVGVYYCFQGSHVPFTFGQGTKLEIK
# B7: S4D12-IgG4 (mouse-human chimeric antibody, human IgG4-kappa) (antibody, V domains shown)
# VH: QVQLQQPGAELVKPGASVKMSCKASGYTFTNYWMHWVKQRPGQGLEWIGVIAPSDNYTNYNQKFQGKATLTVDTSSSTAYMQLSSLTSEDSAVYYCTKGGKYSMDYWGQGTSVTVSS
# VL: DVLMTQTPLSLPVSLGDQASISCRSSQSIVHSNGNTYLEWYLQKPGQSPKLLIYKVSNRFSGVPDRFSGSGSGTDFTLKISRVEAEDLGVYYCFQGSHVPFTFGSGTKLEIKR
# notes: also called 人-鼠嵌合单抗S4D12
# B8: S2C3-IgG4 (mouse-human chimeric antibody, human IgG4-kappa) (antibody, V domains shown)
# VH: QIQLQQSGPELVKPGASVKISCKASGYTFTDYYMHWVKQRPGQGLEWIGWINPSSGNTKYAQKFQDKATLTVATSSSTAYMQLSSLTSEDTAVYFCARREEDYFDYWGQGTLVTVSS
# VL: DIVMSQSPSSLAVSVGEKVTMSCKSSQSLLYPSNKKNYLTWYQQKPGQSPKLLIYWASTRESGVPDRFTGSGSGTDFTLTISSVKAEDLAVYYCQEYYAYPLSFGAGTKLEIKR
# notes: also called 人-鼠嵌合单抗S2C3
# B9: H10C7+L25B8 (affinity-matured variant of hS2C3) (antibody, V domains shown)
# VH: B1 VH with S54G, K59R, A61S
# VL: B1 VL
# notes: Humanized monoclonal antibody
# B10: S2H2-IgG4 (mouse-human chimeric antibody, human IgG4-kappa) (antibody, V domains shown)
# VH: QVQLQQPGAEVVKPGASVKMSCKASGYTLSSYWMHWVKQRPGQGLEWIGTIDRSDSYISYNQKFKGKATLTVDTSSGTVYMQLNSLTSEDSAVYYCTRGGPYGSKMMDNWGQGTSVTVSS
# VL: DIQMNQSPSSLSASLGDTITITCHASQNINVWLSWYQQKPGNIPKLLIYKASNLHTGVPSRFSGSGSGTGFTLTISSLQPEDIATYYCQQGQSYPLTFGTGTKLELKR
# notes: also called 人-鼠嵌合单抗S2H2
# B11: Hu5F9-G4 (humanized anti-CD47 monoclonal antibody) (antibody, human IgG4, V domains shown)
# VH: QVQLVQSGAEVKKPGASVKVSCKASGYTFTNYNMHWVRQAPGQRLEWMGTIYPGNDDTSYNQKFKDRVTITADTSASTAYMELSSLRSEDTAVYYCARGGYRAMDYWGQGTLVTVSS
# VL: B6 VL with T7S, H31Y, E39G, F101Y
# notes: Prepared after US 9017675B2; labelled IgG4; also called Hu5F9-IgG4; hu5F9-IgG4
# Biological target: T1, huCD47-D1-his (recombinant human CD47 extracellular region D1 with C-terminal His tag) (human (homo sapiens), UniProt Q08722 19-141)
# T1 construct: Expressed in HEK293 cells; analyte in the Biacore measurements and antigen of the phage panning; also called huCD47-his; hCD47; not shown: His tag added at the C-terminus
# Experiment: SPR BIAcore, against hS2C3 as reference
row,Binder,fold improvement of affinity over hS2C3 [fold]
1,B1,10

# Biological target: T1, huCD47-D1-his (recombinant human CD47 …)
# Experiment: solid-phase phage panning on huCD47-D1-his, three rounds
row,Binder,binding result
1,B2,binds
2,B3,binds
3,B4,binds

# Biological target: T1, huCD47-D1-his (recombinant human CD47 …)
# Experiment: SPR BIAcore, by the method of Example 3 (antibody captured, huCD47-D1-his analyte)
Binder,Kd [nM],koff [s⁻¹],kon [M⁻¹ s⁻¹]
B5,10.1,0.011,1.09e+06
B6,9.6,0.0118,1.22e+06
B7,8.56,0.011,1.28e+06
B8,18.5,0.0205,1.11e+06

# Biological target: T1, huCD47-D1-his (recombinant human CD47 …)
# Experiment: as above
# Remark: another data set of the same source
Binder,Kd [nM],koff [s⁻¹],kon [M⁻¹ s⁻¹]
B1,0.807,0.00096,1.19e+06
B9,1.11,0.00115,1.03e+06
B5,9.55,0.0103,1.08e+06

# Biological target: T2, hCD47-mFc (human CD47 extracellular region D1 fused to mouse IgG2a Fc) (human (homo sapiens))
# T2 construct: no linker is stated
# Experiment: competition ELISA: hCD47-mFc coated, fixed hCD172a-D1M1-His as competitor, antibody titrated
row,Binder,IC50 [nM]
1,B10,2 to 5
2,B8,2 to 5

# Biological target: T2, hCD47-mFc (human CD47 extracellular …)
# Experiment: competition ELISA by the method of Example 3 (hCD47-mFc coated, hCD172a-D1M1-His as competitor)
row,Binder,IC50 [nM]
1,B1,< 5
2,B9,< 5
3,B5,< 5
4,B6,< 5

# Biological target: T2, hCD47-mFc (human CD47 extracellular …)
# Experiment: competition ELISA: hCD47-mFc coated, fixed hCD172a-D1M1-His as competitor, antibody titrated
# Remark: another data set of the same source
row,Binder,IC50 [nM]
1,B10,2.08
2,B11,9.61
3,B7,3.89
4,B8,5.19

# Biological target: T1, huCD47-D1-his (recombinant human CD47 …)
# Experiment: SPR Biacore X100, antibody captured via anti-human Fc on CM5, huCD47-D1-his as analyte, 25 C
Binder,Kd [nM],koff [s⁻¹],kon [M⁻¹ s⁻¹]
B10,9.71,0.00696,717000
B7,10.1,0.0142,1.41e+06
B8,25.1,0.0222,886000

# Biological target: T2, hCD47-mFc (human CD47 extracellular …)
# Experiment: competition ELISA by the method of Example 3 (hCD47-mFc coated, hCD172a-D1M1-His as competitor)
# Remark: another data set of the same source
row,Binder,IC50 [nM]
1,B5,3.36
2,B11,4.16
3,B6,2.68

# Biological target: T2, hCD47-mFc (human CD47 extracellular …)
# Experiment: as above
# Remark: another data set of the same source
row,Binder,IC50 [nM]
1,B1,4.13
2,B9,4.51
3,B5,4.13

# From patent CN108503708A (BEIJING WISDOMAB BIOTECHNOLOGY CO LTD; GENRIX SHANGHAI …, dated 2018)
